Source: the nanobody polyreactivity screen of Harvey et al. (2022)

Experiment: yeast display, Sf9 membrane polyspecificity reagent, FACS + sequencing; frameworks hold sequencing errors
In short: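 Galactose induction of a Saccharomyces cerevisiae BJ5465 synthetic nanobody display library ran 36–48 hours. The cells were then stained for 1 hour at 4 °C with 10% biotinylated, detergent-solubilized Sf9 membrane reagent, pulled down on streptavidin microbeads and FACS-sorted into low and high (top ~1%) gates on expression and reagent-binding fluorescence. Labels for polyreactivity follow the gate of origin.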

Row | Sequence | polyreactivity (PSR sort gate)
1 | QVQLVESGGGLVQAGGSLRLSCAASVSTFYRNAMGWYRQAPGKERELVADISASGGSTYYADSVKGRFTISRDNAKNTVYLQMNSLKPEDTAVYYCNALYFYFYNYLTIVYWGQGTQVSVSS | low polyreactivity
2 | QVQLVESGGGLVQAGGSLRLSCAASVSTVSYNAMGWYRQAPGKERELVAAISGSGGTTYYADSVKGRFTISRDNAKNTVYLQMNSLKPEDTAVYYCAARPFRSWRYDYWGQGTQVTVSS | low polyreactivity
3 | QVQLVESGGGLVQAGGSLRLSCAASVYTSSLNAMGWYRQAPGKERELVARITTDGTSTYYADSVKGRFTISRDNAKNTVYLQMNSLKPEDTAVYYCNARYPAYGVRSWYPYAYYYWGQGTQVTVSS | low polyreactivity
4 | QVQLVESGGGLVQAGGSLRLSCAASVYTVVWYAMGWYRPAPGKERELVAVITSGGGTNYADSVKGRFTISRDNAKNTVYLQMNSLKPEDTAVYYCAAVWYTSRQKYDYWGQGTQVTVSS | low polyreactivity
5 | QVQLVESGGGLVQAGGSLRLSCAASYAMGGYRQAPGKERELVAGISRSGDITYYADSVKGRFTISRDNAKNTVYLQMNSLKPEDTAVYYCAARQGRYSGRQLFYWGQGTQVTVSS | high polyreactivity
6 | QVQLVESGGGLVQAGGSLRLSCAATGFIFPKYAMGWYSKAPGKERELVAAISKSGGRTYYADSVKGRFTISRDNAKNTVYLQMNSLKPEDTAVYYCAAEFTYEGDSWGQGTQVTVSS | high polyreactivity
7 | QVQLVESGGGLVQAGGSLRLSCAATGFTFSRNTMGWYRQAPGKERELGARITKRGGTTYYADSVKGRFTISRDNAKNTVYLQMNCLKPEDSAVYYCAAATQNPGSDYWGQGTQVTVSS | high polyreactivity
8 | QVQLVESGGGLVQAGGSLRLSCAATGFTFVYYAMGWYRPAPGKERELVAAISSSGTRTYYADSVKGRFTISRDNAKNTVYLQMNSLKPEDTAVYFCAARNTYRTKVDYWGQGTQVTVSS | high polyreactivity
9 | QVQLVESGGGLVQAGGSLRLSCAATGFTLTRNAMGWYRQAPGKERELVAAISWSGGTTYYADSVKGRFTISRDNAKNTFYLQMNSLKPEDTAVYYCAALRYKLPLGYWGQGTQVTVSS | high polyreactivity
10 | QVQLVESGGGLVQAGGSLRLSCAATGIFVVYAMGWYREAPGKERELVAAIRSDASTNYADSVKGRFTISRDNAKNTVYLQMNILKPEDTAVYYCNTAQLVSDEFDYWGQGTQVTVSS | low polyreactivity
11 | QVQLVESGGGLVQAGGSLRLSCAATGITFIVYVMGWYRQAPGKERELFATISYDDSTYADSVKGSFTISRDNAKNTVYLQMNSLKPEDTAVYYDYWGQGTQVTVSS | low polyreactivity
12 | QVQLVESGGGLVQAGGSLRLSCAATGITFRYNAMGWYRLAPGKERELVAAITFSGGSTYYADSVKGRFTISRDNAKNTVYLQMNSLKPEDTAVYYCAKLGSTSSRGNYDYWGQGTQVTVSS | low polyreactivity
13 | QVQLVESGGGLVQAGGSLRLSCAATGLTLKENVMGWYRQAPGKERELVAAISTGASTYYADSVKGRFTISRDNAKNTVYLQMNSLKPEDTAVYYCAKRVTRCYGYWGQGTQVTVSS | high polyreactivity
14 | QVQLVESGGGLVQAGGSLRLSCAATGLTVRYYTMGWYRQAPGKERELVASITIRGGSTYYADSVKGRFTISRDNAKNTVYLQMNSLKAEDTAVYYCNTRYGYSFGYWGQGTQVTVSS | high polyreactivity
15 | QVQLVESGGGLVQAGGSLRLSCAATGNTFTYNTMGWYRQAPGKERELVARITFSAGRTYYADSVKGRFTISRDNAKNTVYLQMNSLKPEDTAVYYCAAYSFGLRSYYLYDYWGQGTEVTVSS | high polyreactivity
16 | QVQLVESGGGLVQAGGSLRLSCAATGRIFGQYAMGWYRQAPGKESDFVAVISKRGGRTYYADSVMGRFTISRDNAKNTVYLQMNSLKPEDTAVYYCAAEYYPHDGAQYEYWGQGTQVTVSS | high polyreactivity
17 | QVQLVESGGGLVQAGGSLRLSCAATGRIFHGYAMGWYRQAPGKERELVAAIDEDGGSTYYADSVKGRFTISRDNAKNTVYLQMNSLKPVDTAVYYCNADCSVRLDGFDYWGQGTQVTVSS | low polyreactivity
18 | QVQLVESGGGLVQAGGSLRLSCAATGRIFIDNTMGWYRQAPGKERELVAAISWSGGSTYYADSVKGRFTISRDNAKNTVYLQMNCLKPEDTAVYYCAARRLRSNGRTWAVTYDYWGQGTQVTVSS | low polyreactivity
19 | QVQLVESGGGLVQAGGSLRLSCAATGRIFSFYAMGWYRQAPGKERELVAAITWGDGSTYYAVSVKGRFTISRDNAKNTVYLQMNSLKPEDTAVYYCNKTYIDTTVYDVIMDYWGQGTQVTVSS | low polyreactivity
20 | QVQLVESGGGLVQAGGSLRLSCAATGRISVFYTMRWYRQPPGKATELVAVIRTSVGRTNYADYVKGRFTISRVNAKNTVYLQMNSLKPEDTAVYYCAAGVVSYGYNYYYWGQGTQVTVSS | low polyreactivity
21 | QVQLVESGGGLVQAGGSLRLSCAATGRTFGYSPMGSYRPAPGKERELVAAISRRGGSTYYADSVKGRFIISRDNAKNTVYLQMNSLKPEDTAVYYCAKGHQWGLKGGYDYWGQGTQVTVSS | high polyreactivity

Row | Sequence | polyreactivity (PSR sort gate)
22 | QVQLVESGGGLVQAGGSLRLSCAATGRTFSGNAMGWYRQAPAKERELVAAISRSGGTTYYADSVKGRFTISRDNAKNPVYLQMNSLKPEDTAVYYCNRGWANWLGPDDYWGQGNQVTVSS | high polyreactivity
23 | QVQLVESGGGLVQAGGSLRLSCAATGSIFGIYTMGWDRQAPGKERELVAAIRRSGSTNYADSVKGRFTISRDNEKNTVYLQMNSLKPEDSAVYYCAADALSDEYDYWGQGTQVTVSS | low polyreactivity
24 | QVQLVESGGGLVQAGGSLRLSCAATGSIFGKYAMGWSRQAPGKERELVAVITWSGGSTYYADSVKGRFTISRDNAKNTVYLQMNSLKPEDTAVYYCNAANTGSQDYQSIGYNFNYWGQGTQVTVSS | low polyreactivity
25 | QVQLVESGGGLVQAGGSLRLSCAATGSIFSYYDMAWYRQAPGNERELVAGISRGGSTNYADSVKGRFTISRDNGKNTVYLQMNSLKEEDTAVYYCNADQSSRTYPFRRSRRSWLYGYWGQGTQVTVSS | low polyreactivity
26 | QVQLVESGGGLVQAGGSLRLSCAATGSIFWVNGMGWYRQAPGKERELVAAITWSGGSTYYADSVKGRFTISRDNAKNTVYLQMNSLKPEDTAVYYCADYGQYYLWDGYGYWGQGTQVTVSS | low polyreactivity
27 | QVQLVESGGGLVQAGGSLRLSCAATGSIFYHYAMGWYRQAPGKERELVAAISGSGGSTYYADSVKGRFTISRDNAKNTVYLQMNSLKPEDTAVYYCAADTSRYHYSRYFFDSDYWGQGTQVTVSS | low polyreactivity
28 | QVQLVESGGGLVQAGGSLRLSCAATGSIINRYVMGWYRQAPGKEREFVAAIRNTGGSTYYADSVKGRFTISRDNAKNTVYLQMNSLKPEDPAVYYCAAVYRSAYDGLDHGYRRHDYWGQGTQVTVSS | high polyreactivity
29 | QVQLVESGGGLVQAGGSLRLSCAATGSIISVNTMGWYRQAPGKERELVATIRTGDSTNYADSVKGRFTISRDNAKYTVYLQMNSLKPEDTAVYYCAAEWSSLNFDYWGQGTQVTVSS | low polyreactivity
30 | QVQLVESGGGLVQAGGSLRLSCAATGSIVYSNTMGWYRQSPGKERELVAAISTSDTSTYYADSVKGRFTISRDNGKNTVYLQMNSLKPQDTAVYYCNAVCSIVLYGYWGQGTQVTVSS | low polyreactivity
31 | QVQLVESGGGLVQAGGSLRLSCAATGSTFARYAMGWSRQAPGKERELVAAISRRGGSTYYADSVTGRFTLSRDNAKNTVYLQMNSLNQEDTAVDSCAARYGIISSFEYDYWGQGTQVTVSS | high polyreactivity
32 | QVQLVESGGGLVQAGGSLRLSCAATGSTFATNAMGWYKQAPGKEREFVAAISRRGGRTYYADSVKGRFTISRDNAKNTVYLKMNSVKPEDTAVYYCNTLRVGWGQGTQVTVSS | high polyreactivity
33 | QVQLVESGGGLVQAGGSLRLSCAATGSTFGGNAMGWYRQAPGKERELVAAISSSGGSTYYADSVKGRFTISRDNAKNTVYLQRNRLKPEDTAVYYCAALYHWTYDYWGQGTQVTVSS | low polyreactivity
34 | QVQLVESGGGLVQAGGSLRLSCAATGSTFYHYAMGWYRQAPGKEREFVAAISTSGGRTYYADSVKGRFTISRDNAKNTVYLQMNSLKPEDTAVYYCAARPGSWYPSVPSYNYWGQGTQVTVSS | low polyreactivity
35 | QVQLVESGGGLVQAGGSLRLSCAATGSTSVHNAMGWYRQAPGKERELVDAITSDGSTNYADSVKGRFTISRDNAKNTVYLQMNSLKPEDTAVYFCGAAYWTRLRRMDYWGQGTQVTVSS | low polyreactivity
36 | QVQLVESGGGLVQAGGSLRLSCAATGSTYPRNDRGWYRQAPGKERELVAAISRGGSTNYADSVKGRFTISRDNAKNTVYLQMNSLKPEDTAVYFCAAQIFESAYGMDYWGQGTQVTVSS | low polyreactivity
37 | QVQLVESGGGLVQAGGSLRLSCAATGTFIIYAMGRYRQAPGKERELVATISTGGSTNYADSVKGRFTISRDNAKNTVYLQMNSLKPEDTAVYYCAAEWLYPHDGGYPRPMDYCGQGTQVTVSS | low polyreactivity
38 | QVQLVESGGGLVQAGGSLRLSCAATGYIFSHYAMGWYRQAPGKERELVAAITRSGGSTYYADSVKGRFTISRDNAKNTVYLQMNSLKPEVTAVYYCAASSLFYYWGQGTQVTVSS | high polyreactivity
39 | QVQLVESGGGLVQAGGSLRLSCAATGYTFFRNTMGWYRQAPGKESELVAVITKSGGSTYYADSVKWRFTISRDNAKNTVYLHMNSLIPEDTAVYYCNAVTALRNTEYNYWGQGTQVTVSS | high polyreactivity
40 | QVQLVESGGGLVQAGGSLRLSCAAYASTLANYALGWYRQSPGKERELVAAINSGGSTYYADSVKGRFTISRDNAKNTVYLQMNSLKPEDTAVYYCAARYASPRYKSKMDYWGQGTQVTVSS | high polyreactivity
41 | QVQLVESGGGLVQAGGSLRLSCAAYGFIFIGYTMGWYRQAPGKERELVATISLGDDSTYYADSVKGRFTISRDNAKNTVYLQMNSLKPEDTAVYYCAADQIDGTTSAYDYWGQGTQVTVSS | low polyreactivity
